Results as given in patent publication US20180002754A1.

Assays:
[1] = molecular target: Frizzled-2 (human Fzd2) (human) (UniProt Q14332); experiment: SPR (Biacore, by Precision Antibody); antibody as ligand, Frizzled-2 as analyte at 0-500 nM
[2] = molecular target: Frizzled-2 (human Fzd2) (human) (UniProt Q14332); experiment: SPR (BioCore study performed by Precision Antibody), legend of FIG. 10
[3] = molecular target: Frizzled-2 (human Fzd2) (human) (UniProt Q14332); experiment: SPR (Biacore) binding analysis, text to Table 1 and FIG. 10

Chain of UniProt Q14332 (Q14332 24-247 limits assumed): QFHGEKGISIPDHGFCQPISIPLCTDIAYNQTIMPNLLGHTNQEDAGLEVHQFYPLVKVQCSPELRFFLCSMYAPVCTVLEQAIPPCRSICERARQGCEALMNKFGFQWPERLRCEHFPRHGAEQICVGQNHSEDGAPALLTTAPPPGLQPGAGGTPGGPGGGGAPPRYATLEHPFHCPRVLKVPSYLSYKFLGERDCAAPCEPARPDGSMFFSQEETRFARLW

## anti-Fzd2 antibody (R & D Systems; MAB1307)
[1]
  Ka: 5.2e+07 M⁻¹
  Kd: 19 nM
  koff: 0.00074 s⁻¹
  kon: 39000 M⁻¹ s⁻¹
[2]
  Kd: 20 nM
[3]
  Kd: < 20 nM
